{
  "source": "patent US8759613B1",
  "about": "“Method of producing a lunasin polypeptide in plants” (University of Louisville Research Foundation, Inc., priority 2009, dated 2014)",
  "origin": "cited, not measured here",
  "conditions": "oral administration; digestion",
  "data": [
    {"substance": "lunasin: polypeptide of 43-44 amino acids from soybean with a C-terminal end of nine consecutive aspartic acid residues (MSKWQHQQDSCRKQLQGVNLTPCEKHIMEKIQGRGDDDDDDDDD; Glycine max)", "values": [
      {"measurement": "orally-administered lunasin degraded", "result": "≤ 95", "unit": "%"}
    ]}
  ]
}
